# Patent publication US6635743
# T1: DR4 (UniProt O00220 24-239, limits assumed)
# T1 construct: also called TRAIL-R1; APO-2
# T1 sequence (looked up): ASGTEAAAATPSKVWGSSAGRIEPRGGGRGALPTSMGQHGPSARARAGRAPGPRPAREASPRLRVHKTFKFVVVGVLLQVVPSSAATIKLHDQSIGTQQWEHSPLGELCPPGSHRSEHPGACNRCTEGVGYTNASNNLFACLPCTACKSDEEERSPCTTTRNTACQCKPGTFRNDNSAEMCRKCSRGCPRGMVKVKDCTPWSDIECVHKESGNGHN
# T2: TR6-(His), recombinant TR6 protein with hexa-histidine at the C-terminus (human, UniProt O95407 30-300)
# T2 construct: also called DcR3; TR6 (DcR3)
# T2 sequence: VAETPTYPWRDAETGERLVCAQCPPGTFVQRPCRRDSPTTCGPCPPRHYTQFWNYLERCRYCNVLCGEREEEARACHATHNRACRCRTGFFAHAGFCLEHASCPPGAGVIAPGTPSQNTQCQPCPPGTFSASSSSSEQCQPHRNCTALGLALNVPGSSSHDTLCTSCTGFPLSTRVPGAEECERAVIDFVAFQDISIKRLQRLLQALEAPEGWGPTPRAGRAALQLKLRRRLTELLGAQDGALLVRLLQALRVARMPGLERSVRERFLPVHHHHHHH
# T3: TNFRI (UniProt P19438 30-211, limits assumed)
# T3 construct: also called TNFR1
# T3 sequence (looked up): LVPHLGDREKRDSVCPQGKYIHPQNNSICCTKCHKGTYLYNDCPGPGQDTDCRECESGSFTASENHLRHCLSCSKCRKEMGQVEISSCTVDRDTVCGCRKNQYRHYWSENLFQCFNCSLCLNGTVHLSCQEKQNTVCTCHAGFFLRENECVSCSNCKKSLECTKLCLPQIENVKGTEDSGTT
# T4: Fas (UniProt P25445 26-173, limits assumed)
# T4 construct: also called CD95; APO-1
# T4 sequence (looked up): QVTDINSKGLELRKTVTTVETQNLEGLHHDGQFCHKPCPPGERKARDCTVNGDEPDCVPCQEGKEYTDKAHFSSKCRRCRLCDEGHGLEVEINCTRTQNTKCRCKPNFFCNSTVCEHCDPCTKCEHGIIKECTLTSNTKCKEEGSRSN
# T5: DR3 (UniProt Q93038 25-199, limits assumed)
# T5 construct: also called TRAMP; APO-3
# T5 sequence (looked up): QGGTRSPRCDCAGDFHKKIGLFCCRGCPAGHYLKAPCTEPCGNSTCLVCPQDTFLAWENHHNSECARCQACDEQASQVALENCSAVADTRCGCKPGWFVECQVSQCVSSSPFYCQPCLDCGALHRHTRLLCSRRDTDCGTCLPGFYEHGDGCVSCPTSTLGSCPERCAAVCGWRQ
# T6: TR2 on the surface of MDA-MB-231 and HT-29 cells and of T cells (human, UniProt Q92956 39-283)
# T6 construct: whole, on cells; The tumour cells carry both LTβR and TR2; also called HVEM; ATAR
# T6 sequence (looked up): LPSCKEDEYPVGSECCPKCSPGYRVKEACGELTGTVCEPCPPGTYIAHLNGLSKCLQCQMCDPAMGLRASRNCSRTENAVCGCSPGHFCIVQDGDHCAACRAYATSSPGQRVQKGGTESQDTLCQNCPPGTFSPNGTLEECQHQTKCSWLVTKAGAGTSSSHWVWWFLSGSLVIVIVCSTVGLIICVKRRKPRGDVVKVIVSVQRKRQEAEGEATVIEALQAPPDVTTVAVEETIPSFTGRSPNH
# B1: Flag-tagged soluble AIM II protein (sAIM II), amino acids 74-240 of AIM II (ligand)
# chain: DGPAGSWEQLIQERRSHEVNPAAHLTGANSSLTGSGGPLLWETQLGLAFLRGLSYHDGALVVTKAGYYYIYSKVQLGGVGCPLGLASTITHGLYKRTPRYPEELELLVSQQSPCGRATSSSRVWWDSSFLGGVVHLEAGEEVVVRVLDERLVRLRDGTRSYFGAFMV
# notes: also called sLIGHT; AIM II-Flag; not shown: N-terminal FLAG peptide tag from vector pFLAG.CMV-1 (behind the preprotrypsin signal peptide)
# B2: natural processed form of AIM II purified from conditioned media of MCA-38 cells transfected with full length AIM II cDNA (residues 83-240) (ligand)
# chain: LIQERRSHEVNPAAHLTGANSSLTGSGGPLLWETQLGLAFLRGLSYHDGALVVTKAGYYYIYSKVQLGGVGCPLGLASTITHGLYKRTPRYPEELELLVSQQSPCGRATSSSRVWWDSSFLGGVVHLEAGEEVVVRVLDERLVRLRDGTRSYFGAFMV
# notes: apparent mass about 21 kDa, said to be consistent with glycosylation; also called MCA-38 AIM II; AIM II (aa 83-240)
# B3: HVEM/TR2-Fc fusion protein (Fc fusion, UniProt Q92956 39-202, looked up)
# chain: LPSCKEDEYPVGSECCPKCSPGYRVKEACGELTGTVCEPCPPGTYIAHLNGLSKCLQCQMCDPAMGLRASRNCSRTENAVCGCSPGHFCIVQDGDHCAACRAYATSSPGQRVQKGGTESQDTLCQNCPPGTFSPNGTLEECQHQTKCSWLVTKAGAGTSSSHWV
# notes: not shown: Fc portion; detected with anti-human IgG
# B4: lymphotoxin beta receptor (LTβR)-Fc fusion protein (Fc fusion, human, UniProt P36941 31-227, looked up)
# chain: QAVPPYASENQTCRDQEKEYYEPQHRICCSRCPPGTYVSAKCSRIRDTVCATCAENSYNEHWNYLTICQLCRPCDPVMGLEEIAPCTSKRKTQCRCQPGMFCAAWALECTHCELLSDCPPGTEAELKDEVGKGNNHCVPCKAGHFQNTSSPSARCQPHTRCENQGLVEAAPGTAQSDTTCKNPLEPLPPEMSGTMLM
# notes: extracellular domain; also called sLTβR-Fc; lymphotoxin-β receptor-Fc fusion protein; not shown: IgG1 Fc from vector pUC19-IgG1-Fc
# B5: full-length AIM II (LIGHT) expressed on the cell surface (ligand)
# chain: MEESVVRPSVFVVDGQTDIPFTRLGRSHRRQSCSVARVGLGLLLLLMGAGLAVQGWFLLQLHWRLGEMVTRLPDGPAGSWEQLIQERRSHEVNPAAHLTGANSSLTGSGGPLLWETQLGLAFLRGLSYHDGALVVTKAGYYYIYSKVQLGGVGCPLGLASTITHGLYKRTPRYPEELELLVSQQSPCGRATSSSRVWWDSSFLGGVVHLEAGEEVVVRVLDERLVRLRDGTRSYFGAFMV
# Legend:
# [1] = target: T1, DR4; experiment: in vitro binding assay, not described
# [2] = target: T7, DR5 (UniProt O14763 56-210, limits assumed); experiment: in vitro binding assay, not described
# T7 construct: also called TRAIL-R2
# [3] = target: T2, TR6-(His), recombinant TR6 protein with …; experiment: summary of the experiments of Example 13
# [4] = target: T3, TNFRI; experiment: 'in a similar assay'; format not described
# [5] = target: T4, Fas; experiment: 'in a similar assay'; format not described
# [6] = target: T5, DR3; experiment: 'in a similar assay'; format not described
# [7] = target: T8, LTβR on the surface of MDA-MB-231 and HT-29 cells (human, UniProt P36941 31-435); experiment: summary of the FACS and cytotoxicity experiments
# T8 construct: whole, on cells; The cells carry both LTβR and TR2; also called lymphotoxin β receptor
# Protocol: (§1) FIGS. 8A–8M. Cell surface expression of the LTβR or TR2 by the FACS analyses using LTβR (FIGS. 8A–8D) or TR2 (FIGS. 8E–8H) mAb. […] FACS binding analyses of soluble AIM II protein alone (FIG. 8I) and blocking of a soluble AIM II protein binding by preincubation with the LTβR-Fc fusion protein (FIG. 8J) or TR2-Fc fusion protein (FIG. 8K) in MDA-MB-231 cells. FIG. 8L summarizes the surface expression of LTβR and TR2 in various cell lines. Effects of LTβR-Fc or TR2-Fc fusion protein to block the sAIM II-mediated cytotoxicity in HT-29 cells (FIG. 8M). […] Cells were incubated for five days and the viability of cells was determined by XTT assays.
# (§2) A soluble tetrazolium/formazan (XTT) assay for cell growth in a 96-well plate was performed. Cells (2,000–4,000 cells/well) were grown in IMEM medium with 10% FBS or 1% FBS. After four to five days culture, XTT (1.0 mg/ml plus PMS at 1.53 mg/ml) was added to each well and incubated for four hours at 37° C. Absorbance at 450 nm was measured with the Dynatech Model MR700.
# (§3) Cells were collected by trypsinization or aspiration, and centrifuged at 1500–2000 rpm for 5 min. The cell pellets were resuspended and washed in 5 ml ice-cold PBS twice. […] Fluorescence was analyzed by a FACscan flow cytometer (Becton Dickinson, Mountain View, Calif.).
# [8] = target: T6, TR2 on the surface of MDA-MB-231 and …; experiment: summary of the FACS and cytotoxicity experiments
# Protocol: as §1, §2, §3
# [9] = target: B3; experiment: FACS competition, TR2-Fc at 10 µg/ml preincubated with sAIM II
# Protocol: Cells were collected by trypsinization or aspiration, and centrifuged at 1500–2000 rpm for 5 min. The cell pellets were resuspended and washed in 5 ml ice-cold PBS twice. And then, the cells were incubated with Flag-tagged AIM II protein or Abs at 10 μg/ml in the binding buffer (HBSS containing 10% BSA, 20 mM HEPES, pH 7.2, 0.02% NaN₃, and 25 μg/ml normal rat Ig) for 30 min at 4° C. Cells were then washed and stained with phycoerythrin (PE) conjugated to goat anti-mouse IgG at 20 μg/ml as described. To compete for cell surface binding, soluble LTβR-Fc fusion protein, TR2-Fc at 10 μg/ml was preincubated with AIM II for 30 min before adding to cells. Fluorescence was analyzed by a FACscan flow cytometer (Becton Dickinson, Mountain View, Calif.).
# [10] = target: B4; experiment: BIAcore, LTβR-Fc immobilized by amine coupling, CHO conditioned serum-free media
# Protocol: (§4) CHO cells were transfected with either an AIM II-Flag tag expression vector or an BAP-Flag (negative control). Three days after transfection, AIM II expression was determined using the BIAcore instrument (BIAcore, Inc.) which permits real-time measurements of protein binding events to immobilized AIM II receptor, lymphotoxin-β receptor (BIAcore sensorgram detects binding by changes in refractive index at the surface of the flow cell). A lymphotoxin-β receptor-Fc fusion protein was covalently immobilized to the BIAcore flow cell via amine groups using N-ethyl-N'-(dimethylaminopropyl)carbodiimide/N-hydroxysuccinimide chemistry. Various dilutions of AIM II-Flag and the negative control (BAP-Flag) conditioned serum-free media were applied to the lymphotoxin-β-receptor-derivatized flow cell at 5 µl/min for a total volume of 50 µl. The amount of bound protein was determined after washing the flow cell with HBS buffer (10 mM HEPES, pH 7.4, 150 mM NaCl, 3.4 mM EDTA, 0.005% Surfactant P20). The flow cell surface was regenerated by displacing bound protein by washing with 20 µl of 10 mM HCl.
# [11] = target: B4; experiment: LTβR-Fc affinity column, eluate tested on LTβR BIAcore chip; band of about 21 kDa specifically bound to the column
# Protocol: Conditioned media from the stable transfectants, CHO11 or MCA-38 cells, were filtered, centrifuged at 10,000×g and then passed over an MCIF-Fc affinity column (control column) followed by the LTβR-Fc affinity column (0.2 mL bed volume). The columns were washed with several bed column volumes HEPES buffered saline containing 0.005% Surfactant P-20. Bound protein was eluted with 10 mM HCl (3×0.5 ml fractions) and immediately neutralized with TRIS buffer. The fractions eluted from the LTβR column retained binding to LTβR BIAcore chip, whereas, fractions eluted from the control MCIF-Fc column were negative for binding. The eluted fractions were dried in Spedvac then resuspended in 20 μl water. An aliquot of the eluted protein was analyzed by reducing SDS-PAGE gels and detected by silver staining. A band of approximately ~25 kDa and ~21 kDa was detected specifically bound to the LTβR column from CHO-11 and MCA-38 cell lines. The remaining eluted material was subject to SDS-PAGE and blotted onto PVDF membrane for N-terminal sequence analysis.
# [12] = target: B5; experiment: flow cytometry on AIM II (LIGHT)-transfected HEK 293 EBNA cells, FITC anti-human IgG
# Protocol: (§5) After selection with Hygromycin B, cells were harvested with 1 mM EDTA in PBS and incubated with TR6-(His), HVEM/TR2-Fc, or LTβR-Fc for 20 minutes on ice. For detecting Fc-fusion protein, cells were stained with FITC-conjugated goat anti-human IgG. To detect TR6 binding, cells were stained with anti-poly(His)_6 and FITC conjugated goat anti-mouse IgG consecutively. The cells were analyzed by FACScan (Becton Dickinson).
# (§6) These bindings indicate that TR6 can bind to both soluble and membrane-bound forms of AIM II (LIGHT).
# [13] = target: T9, BAP-Flag (negative control) (UniProt P00634 22-471 = phosphatase); experiment: BIAcore, LTβR-Fc immobilized, conditioned serum-free media of CHO cells
# T9 construct: Tested as conditioned serum-free medium of transfected CHO cells
# Protocol: as §4
# [14] = target: T2, TR6-(His), recombinant TR6 protein with …; experiment: flow cytometry on AIM II (LIGHT)-transfected HEK 293 EBNA cells, anti-poly(His)6 and FITC anti-mouse IgG
# Protocol: as §5, §6
# T9 sequence (P00634 22-471): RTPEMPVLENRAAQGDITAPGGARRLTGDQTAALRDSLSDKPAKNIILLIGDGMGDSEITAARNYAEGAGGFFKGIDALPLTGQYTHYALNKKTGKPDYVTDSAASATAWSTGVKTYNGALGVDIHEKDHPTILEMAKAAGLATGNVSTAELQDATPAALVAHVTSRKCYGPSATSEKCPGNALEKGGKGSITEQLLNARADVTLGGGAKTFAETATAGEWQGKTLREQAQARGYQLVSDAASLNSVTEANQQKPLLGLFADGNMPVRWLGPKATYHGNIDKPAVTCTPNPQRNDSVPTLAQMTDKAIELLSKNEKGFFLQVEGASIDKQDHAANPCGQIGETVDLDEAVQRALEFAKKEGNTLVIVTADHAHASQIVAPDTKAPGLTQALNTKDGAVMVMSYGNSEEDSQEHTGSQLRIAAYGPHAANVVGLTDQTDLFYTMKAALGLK
binder,measurement,setting,value
B1,binding result,[1],no binding
same,binding result,[2],no binding
same,binding result,[3],binds
same,binding result,[4],no binding
same,binding result,[5],no binding
same,binding result,[6],no binding
same,binding result,[7],binds
same,binding result,[8],binds
same,binding result,[9],binds
same,binding result,[10],binds
B2,binding result,[11],binds
B3,binding result,[12],binds
B4,binding result,[13],no binding
same,binding result,[12],binds
B5,binding result,[14],binds
